Reference: publication doi:10.1101/869123

Key:
[1] = target: CRIPT^S4 (CRIPT mutants with substitutions to any of the first four cysteines), co-IP from mitotic HeLa cells; assay: co-IP
[2] = target: CRIPT^L4 (CRIPT mutants with substitutions to any of the last four cysteines), co-IP from mitotic HeLa cells; assay: co-IP

| fold of tubulin brought down relative to wild-type CRIPT [1] [fold] | fold of tubulin brought down relative to wild-type CRIPT [2] [fold] | Substance |
| --- | --- | --- |
| > 2 | > 2 | α-tubulin, endogenous, mitotic HeLa cells (from UniProt P68363 1-451) (natural protein) |
| > 2 | > 2 | β-tubulin, endogenous, mitotic HeLa cells (from UniProt P07437 1-444) (natural protein) |
